Legend:
[1] = system: horny layer (skin); assay: Skin hydration after topical application (corneometer); format: in vivo, human (healthy volunteers); conditions: 0.2% in ointment, single administration, average for 10 subjects
Method: In order to establish a comparison between hyaluronic acid and its derivatives of the present invention, some experiments were carried out to instrumentally evaluate, after topical application, the hydrating properties of the compounds in examination. All the compounds were […] concentration of 0.2% in an ointment the composition of which was as follows: […] Each volunteer was treated (single administration) with all the formulations in examination, which were applied (1 gr./ointment) to the inside surface of each forearm, distinguishing with a dermographic pencil the application zone (about 25 cm^2) of each product and standardizing the procedure as far as possible. To the right forearm were applied the compounds known as […]9, while to the left were applied HYAFF10, placebo and hyaluronic acid. […] Most particularly, the dielectric strength of the water was measured (in 0.8 seconds), after application of the sensor (condenser) to the skin surface. […] Registrations were carried out in constant humidity conditions.

[2] = Absorption and bioavailability: plasma levels of hydrocortisone in rats; format: in vivo, male Sprague-Dawley rats; conditions: s.c.; for average plasmatic level of hydrocortisone: average of 4 values; for Ka: HYC 6.5 mg/kg
Method: Male Sprague-Dawley rats, with a body weight of 250-350 gr were used, obtained from Charles River-Calco (Como), fed ad libitum with water and compound feed in pellets, with the code name of 4RF 21, produced by "Italiana Mangimi", licensee of Charles River.
Hydrocortisone was administered in the form of sodium hemisuccinate salt at the dose of 1.34 mg/kg (corresponding to 1 mg/kg of hydrocortisone base) by general intravenous route and at the dose of 1.34 mg/kg and 2.68 mg/ kg (corresponding to 2 mg/ kg of hydrocortisone base) by subcutaneouos route (the i.v. route was considered in order to determine the pharmacokinetic parameters which serve as a comparison for the evaluation of absorption of any other administration route).
The three HYC derivatives were administered by subcutaneous route at the dose of 6.5 and 13 mg/kg (doses corresponding to about 1 and 2 mg/kg in hydrocortisone base). […] All the compounds were injected at a constant volume of 1 ml/kg.
After administration, 0.3 ml of blood was drawn from each animal by cardiac puncture in the presence of anticoagulant (sodium heparin).
Blood drawing times were as follows: *15 mins, 30 mins, 60 mins, 120 mins, 180 min, 300 mins, 360 mins, 420 mins, 480 mins (*limited to the intraveneous route).
The hydrocortisone was dosed by radioimmunoassay method (Cortisolo Kit, Biodata, cod. 10394) using iodate tracing. […] The linearity of the method comes between 1 and 1000 ng/ml. The observation limit is 1 ng/ml.
The dosage of the cortisolemia in the rat is not influenced either by the base levels or by the circadian rhythms of this hormone, as the metabolic pattern of the endogenous glucocorticoid hormones in the rat, leads to the production of corticosterone and not cortisol (see E. L. Green: Biology of the laboratory mouse.)
In Table 3 are reported the results of the average plasma levels of hydrocortisone, after i.v. and s.c. injection (1 and 2 mg/kg). […] In Table 4 are reported the pharmacokinetic parameters of cortisol calculated graphically from the plasmatic decline curves. In Table 3 are reported the average levels of cortisol after subcutaneous administration of the three HYC derivatives at doses of 6.5 and 13 mg/kg (corresponding to about 1 and 2 mg/kg in hydrocortisone base). In Table 4 are reported the pharmacokinetic parameters relative to cortisol calculated graphically with the method of residues from the plasma absorption curve of the three HYC products.

[3] = system: dextran-induced aseptic (exudative) phlogosis in rabbit eye; assay: Anti-inflammatory activity: dextran-induced aseptic (exudative) phlogosis in rabbit eye; format: in vivo; conditions: for eyes without signs of phlogosis out of the total number of eyes treated: 3 drops every 6 hours, 4 treated eyes
Method: 9 hyaluronic esters of cortisone, hydrocortisone and fluorocortisone (9 fluorohydrocortisone) identified by the code names HYC1-HYC9 were tested. Table 1 describes these compounds and gives the percentages of the number of carboxylic groups of HY which are esterified with the above corticosteroids, and where applicable the percentage esterified with simple aliphatic alcohols and those salified with alkaline metals (Na):
Aseptic (exudative) phlogosis was induced in 48 rabbits by intraocular injection of dextran (1% in saline, 0.1 ml). The various products were administered by instillation in the right eye (RE) of the rabbits, while in the left eye (LE) only vehicle was instilled.
The treament (3 drops every 6 hours) was begun immediately after the injection of dextran and was continued for 16 days.
Both eyes of each rabbit were observed through a slit lamp. In particular the following were examined: the state of the conjunctiva and corneal epithelium, the anterior chamber (presence of Tyndall effect), state of the iris and of the posterior segment of the eye. With a Goldmann lens, the state of the back of the eye was examined. The presence of signs of inflammation (hyperemia, exudate, cloudiness of the liquids, etc.) was recorded.
Values are expressed as percentages (number of eyes without signs of phlogosis out of the total number of eyes treated). In brackets are the number of treated eyes.

[4] = 10 days from start of phlogosis
[5] = 12 days from start of phlogosis
[6] = 14 days from start of phlogosis
[7] = 16 days from start of phlogosis

Row | Substance | average plasmatic level of hydrocortisone ([2]; 6.5 mg/kg, 30 min) [ng/mL] | average plasmatic level of hydrocortisone ([2]; 6.5 mg/kg, 60 min) [ng/mL] | average plasmatic level of hydrocortisone ([2]; 6.5 mg/kg, 120 min) [ng/mL] | average plasmatic level of hydrocortisone ([2]; 6.5 mg/kg, 180 min) [ng/mL] | average plasmatic level of hydrocortisone ([2]; 6.5 mg/kg, 360 min) [ng/mL] | average plasmatic level of hydrocortisone ([2]; 6.5 mg/kg, 420 min) [ng/mL] | average plasmatic level of hydrocortisone ([2]; 6.5 mg/kg, 480 min) [ng/mL] | average plasmatic level of hydrocortisone ([2]; 13 mg/kg, 30 min) [ng/mL] | average plasmatic level of hydrocortisone ([2]; 13 mg/kg, 60 min) [ng/mL] | average plasmatic level of hydrocortisone ([2]; 13 mg/kg, 120 min) [ng/mL] | average plasmatic level of hydrocortisone ([2]; 13 mg/kg, 180 min) [ng/mL] | average plasmatic level of hydrocortisone ([2]; 13 mg/kg, 300 min) [ng/mL] | average plasmatic level of hydrocortisone ([2]; 13 mg/kg, 360 min) [ng/mL] | average plasmatic level of hydrocortisone ([2]; 13 mg/kg, 420 min) [ng/mL] | average plasmatic level of hydrocortisone ([2]; 13 mg/kg, 480 min) [ng/mL] | Ka [2] [h⁻¹] | eyes without signs of phlogosis out of the total number of eyes treated ([3]; 2 days from start of phlogosis) [%] | eyes without signs of phlogosis out of the total number of eyes treated ([3]; 4 days from start of phlogosis) [%] | eyes without signs of phlogosis out of the total number of eyes treated ([3]; 6 days from start of phlogosis) [%] | eyes without signs of phlogosis out of the total number of eyes treated ([3]; 8 days from start of phlogosis) [%] | also measured
1 | benzylester of hyaluronic acid (HY) [HYAFF11] | – | – | – | – | – | – | – | – | – | – | – | – | – | – | – | – | – | – | – | – | solubility in DMSO: 200 mg/mL
2 | (partial) butyl ester of hyaluronic acid (HY) [HYAFF10] | – | – | – | – | – | – | – | – | – | – | – | – | – | – | – | – | – | – | – | – | x Δ% degree of hydration of the corneal layer, 1st hr [1]: 68.8%; x Δ% degree of hydration of the corneal layer, 3rd hr [1]: 57.0%; x Δ% degree of hydration of the corneal layer, 6th hr [1]: 27.5%; x Δ% degree of hydration of the corneal layer, 24th hr [1]: 8.3%
3 | (partial and mixed) ethanol and hydrocortisone ester (LC21) of hyaluronic acid (HY) [HYC8] | 33.75 | 45.23 | 44.75 | 41.80 | 26.10 | 20.50 | 17.60 | 34.62 | 51.69 | 108.01 | 76.64 | 54.66 | 47.17 | 42.60 | 37.03 | 0.94 | 0.0 | 0.0 | 0.0 | 25.0 | average plasmatic level of hydrocortisone ([2]; 6.5 mg/kg, 300 min): 30.00 ng/mL; eyes without signs of phlogosis out of the total number of eyes treated [3, 4]: 50.0%; eyes without signs of phlogosis out of the total number of eyes treated [3, 5]: 100.0%; eyes without signs of phlogosis out of the total number of eyes treated [3, 6]: 100.0%; eyes without signs of phlogosis out of the total number of eyes treated [3, 7]: 100.0%
4 | (mixed) ethanol and hydrocortisone ester (C21) of hyaluronic acid (HY) [HYC5] | 33.41 | 49.52 | 60.52 | 61.17 | 42.44 | 30.43 | 25.85 | 26.55 | 38.77 | 41.56 | 44.81 | 32.51 | 31.92 | 26.17 | 22.54 | 0.65 | 0.0 | 0.0 | 25.0 | 50.0 | eyes without signs of phlogosis out of the total number of eyes treated [3, 4]: 50.0%; eyes without signs of phlogosis out of the total number of eyes treated [3, 5]: 100.0%; eyes without signs of phlogosis out of the total number of eyes treated [3, 6]: 100.0%; eyes without signs of phlogosis out of the total number of eyes treated [3, 7]: 100.0%; antiinflammatory activity (in words) ([3]; compared with the corresponding cortisones): most efficient of these derivatives
5 | HYALURONIC ACID [reference compound] | – | – | – | – | – | – | – | – | – | – | – | – | – | – | – | – | – | – | – | – | x Δ% degree of hydration of the corneal layer, 1st hr [1]: 54.7%; x Δ% degree of hydration of the corneal layer, 3rd hr [1]: 37.6%; x Δ% degree of hydration of the corneal layer, 6th hr [1]: 19.7%; x Δ% degree of hydration of the corneal layer, 24th hr [1]: 5.3%
6 | (partial) hydrocortisone ester (C21) of hyaluronic acid (HY) [HYC2] | 27.02 | 35.67 | 42.32 | 37.35 | 26.96 | 24.24 | 18.92 | 32.32 | 50.51 | 62.42 | 58.44 | 51.68 | 48.17 | 44.67 | 39.41 | 0.86 | 0.0 | 0.0 | 0.0 | 25.0 | average plasmatic level of hydrocortisone ([2]; 6.5 mg/kg, 300 min): 32.27 ng/mL; eyes without signs of phlogosis out of the total number of eyes treated [3, 4]: 50.0%; eyes without signs of phlogosis out of the total number of eyes treated [3, 5]: 100.0%; eyes without signs of phlogosis out of the total number of eyes treated [3, 6]: 100.0%; eyes without signs of phlogosis out of the total number of eyes treated [3, 7]: 100.0%

From patent US4851521A, “Esters of hyaluronic acid” (priority 1985, dated 1989)
